Results on three substances are retold here after patent publication US20220054419A1.

The target of this experiment is hemagglutinin (HA) of A/California/4/09 (H1N1) on pseudotyped lentivirus (Influenza virus A/California/04/2009 (H1N1)) (UniProt P26140). As to the kind of experiment: cell-based or functional assay.
For monoclonal antibody 441D6, the Neutralization IC50, lentivirus pseudotype neutralization assay was determined as 0.16 µg/mL.
To “monoclonal antibody CH65 (anti-receptor binding site of HA)” belongs 6.25 µg/mL; to “monoclonal antibody FI6v3 (anti-HA stem region)”, 0.13 µg/mL.
